Reference: the supplement of paper PMC9170038

System: MS2 coat protein
Assay: apparent KD of MS2 coat protein; designed switch direction (-1 OFF switch, 1 ON switch): 1; higher = weaker reporter binding
Settings: Eterna round: R95
Summary of the method: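 An oligonucleotide input, 200 uM small-molecule ligand, or no input was present during titration of SNAP-549-labelled MS2 coat protein, which was doubled from 0.7 or 1.5 nM to 3 µM. Designed RNA switches had been transcribed on Illumina chips by stalled E. coli RNA polymerase. Apparent KD per design is the median over clusters of curves fitted to normalised cluster fluorescence.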

[1] = input ligand: microRNA oligo, concentration not stated

Sequence	apparent KD of MS2 coat protein (input ligand: FMN 200 uM)	apparent KD of MS2 coat protein [1]	apparent KD of MS2 coat protein (input ligand: none)
AGUCCAGCCAGAGCUGGACAAAAGCAUGUACAUGAGGAUCACCCAUGUUCAUGUACAAGCUUUUUGCUCGUCUUAAU [Mat - hsa-mir-208a - Mod of JL - 59] (puzzle: Sensor for hsa-mir-208a)	482 nM	14.1 nM	553 nM
AGUCCAGCCUGAGCUGGACAAAAGCAUGUACAUGAGGAUCACCCAUGUCAUGUACAAGCUUUUUGCUAGUCUUAAAA [Mat - hsa-mir-208a - Mod of JL - D12] (puzzle: Sensor for hsa-mir-208a)	413 nM	13.7 nM	551 nM
AGUCCAGCCUGAGCUGGACAAAAGCAUGUACAUGAGGAUCACCCAUGUUCAUGUACAAGCUUUUUGCUCGUCUUAUA [salish99_208a_r3_043] (puzzle: Sensor for hsa-mir-208a)	528 nM	14.6 nM	697 nM
AGUCCAGCCUGAGCUGGACAAAAGCAUGUACAUGAGGAUCACCCAUGUUCAUGUACAAGCUUUUUGUUCGUCUUAAA [Zipper 52 - 9] (puzzle: Sensor for hsa-mir-208a)	179 nM	11 nM	431 nM
AGUCCAGCCUGAGCUGGACAAAAGCAUGUACAUGAGGAUCACCCAUGUUCAUGUACUAGCUUUUUGCUCGUCUUGCC [salish99_208a_r3_108x] (puzzle: Sensor for hsa-mir-208a)	157 nM	14.8 nM	163 nM
AGUCCAGCCUGAGCUGGACAAAAGCGUGUACAUGAGGAUCACCCAUGUCAUGUACAAGCUUUUUGCUCGUCUUAAAA [Zipper 46 - 7] (puzzle: Sensor for hsa-mir-208a)	63.5 nM	19.9 nM	69.8 nM
AGUCCAGCCUGAGCUGGACAAAGGCAUGUACAUGAGGAUCACCCAUGUCAUGUACAAGCUUUUUGCUCGUCUUAAAA [Zipper 46 - 1] (puzzle: Sensor for hsa-mir-208a)	161 nM	14.9 nM	187 nM
AGUCCAGCCUGAGCUGGACAGAAGCAUGUACAUGAGGAUCACCCAUGUCAUGUACAAGCUUUUUGCUCGUCUUAAUA [Zipper 49 - 3] (puzzle: Sensor for hsa-mir-208a)	459 nM	16.2 nM	641 nM
AGUCCAGCGAAAGCUGGACAAAAGUAUGUACAUGAGGAUCACCCAUGUUCAUGUACAAGCUUUUUGCUCGUUUUAAA [JL mod - D95 - 19] (puzzle: Sensor for hsa-mir-208a)	814 nM	48.1 nM	928 nM
AGUCCAGGCUGACCUGGACAAAAGCAUGUACAUGAGGAUCACCCAUGUCAUGUACAAGCUUUUUGCUCGUCUUAAAA [Mat - hsa-mir-208a - Mod of JL - D16] (puzzle: Sensor for hsa-mir-208a)	701 nM	14.3 nM	637 nM
AGUGAACAUGAGGAUCACCCAUGUGAGAGGGAUGUAGGAUAUGUAAGGAAGUAAGAUGGAACAGAAGGACAAAGUG [JR_SS!_Sub067] (puzzle: Same State 1)	38.6 nM	46.1 nM	50.4 nM
